Measurements reported in patent US20110165660A1, “ENGINEERED MICROORGANISMS WITH ENHANCED FERMENTATION ACTIVITY” (VERDEZYNE, INC., priority 2009, published 2011).

Tests used:
[1] = tested on: xylose isomerase activity; assay: Heterologous xylose isomerase expression in engineered yeast (active yes/no); conditions: xylose isomerase of the donor organism expressed in engineered yeast (S. cerevisiae)
xylose = assay: In vitro xylose isomerase activity assay on soluble whole cell extract (sorbitol dehydrogenase/NADH coupled, A340; Km, specific activity); format: biochemical, Saccharomyces cerevisiae
Method: […] Louis, Mo.), and about 2 U sorbitol dehydrogenase (Roche) at about 30° C. […] A Beckman DU-800 was utilized with an Enzyme Mechanism software package (Beckman Coulter, Inc.), and the change in the A340 was monitored for 2-3 minutes.
(§1) Approximately 20 μg of soluble whole cell extract from each transformed cell line, prepared using Y-PER plus reagent as described above, was incubated in a solution containing about 100 mM Tris, pH 7.5, 10 mM MgCl ? 2, 0.15 mM NADH (Sigma, St. Louis, Mo.), and 2 U Sorbitol Dehydrogenase (SDH) (Roche, Indianapolis, Ind.) at about 30° C. […] A Beckman DU-800 spectrophotometer was utilized with an Enzyme Mechanism software package (Beckman Coulter, Inc, Brea, Calif.), and the change in the A340 was monitored for 2-3 minutes.
as §1, with “line was” for “line,”, “above” for “above,”, “MgCl2,” for “MgCl ? 2,”, “sorbitol dehydrogenase” for “Sorbitol Dehydrogenase”
as §1, with “line was” for “line,”, “above” for “above,”

[2] = Western blot (anti-6xHis) of EDD and EDA expression in yeast, soluble/insoluble extract; set-up: species or system Saccharomyces cerevisiae; conditions: C-terminal HIS tag, S. cerevisiae BY4742; total crude and solubilized extract; FIGS. 13A and 13B
Method: Transformation of the p426GPD plasmids containing an edd or an eda variant gene into yeast strain BY4742 was accomplished using the Zymo Research frozen-EZ yeast transformation II kit according to the manufacturer's protocol. The transformed BY4742 cells were selected by growth on a synthetic dextrose medium (SD) (0.67% yeast nitrogen base-2% dextrose) containing complete amino acids minus uracil (Krackeler Scientific Inc). Plates were incubated at about 30° C. for about 48 hours. Transformant colonies for each edd and eda variant were inoculated onto 5 ml of SD minus uracil medium and cells were grown at about 30° C. and shaken at about 250 rpm for about 24 hours. Cells were harvested by centrifugation at 1000×g for about 5 minutes, after which protein crude extract was prepared with Y-PER Plus (Thermo Scientific) according to the manufacturer's instructions. Whole cell extract protein concentrations were determined using the Coomassie Plus Protein Assay (Thermo Scientific) according to the manufacturer's directions. For each edd and eda variant His-tagged construct, about 10 μg of soluble and insoluble fractions were loaded on 4-12% NuPAGE Novex Bis-Tris protein gels (Invitrogen) and proteins were analyzed by western using anti-(H is)6 (SEQ ID NO: 138) mouse monoclonal antibody (Abcam) and HRP-conjugated secondary antibody (Abcam). […]

6-phosphogluconate = assay: EDA activity assay: S. cerevisiae EDA extracts with saturating E. coli EDD extract, LDH/NADH coupled; format: biochemical, Saccharomyces cerevisiae
Method: EDA extracts were prepared using the following protocol.
Grow 5 ml LB-Kan preps of BF1055 (BL21/DE3 with pET26b empty vector) and BF1706 (BL21DE3 with pET26b+E. coli EDD).
Grow 50 ml LB-Kan prep of BF1055, 2% (v/v) inoculate.
Grow 50 ml prep of BF1706 using Novagen's Overnight Express (46.45 ml LB-Kan, 1 ml solution 1, 2.5 ml solution 2, 50 μl solution 3, 5 μl of 1M MnCl2, 50 μl of 0.5 M FeCl2), 2% (v/v) inoculate.
Inoculate to OD600 of 0.2.
EDD extractions (adapted from Chemyan et al, Protein Science 16:2368-2377, 2007): • 1) Pellet cells in 50 ml conical tubes, 4° C., 3,000 rpm, 10 mins, discard supernatant. • 2) Resuspend in 2 ml degassed PDGH buffer (20 mM MES pH 6.5, 30 mM NaCl, 5 mM MnCl2, 0.5 mM FeCl2, 10 mM 2-mercaptoethanol, 10 mM cysteine, sparged with nitrogen gas). Move to hungate tube. • 3) Add 0.1% Triton X-100, 10 ng/ml DNase, 10 μg/ml PMSF, 10 μg/ml TAME (Nα-(p-toluene sulfonyl)-L-arginine methyl ester), 100 μg/ml lysozyme. • 4) Sparge hungate tube with nitrogen gas, cap and seal. […]
Each reaction contains 50 mM Tris-HCl, pH 7, 10 mM MgCl2, 0.15 mM NADH, 15 μg LDH, saturating amounts of EDD determined empirically (usually ˜100 μg), 1-50 μg EDA (depending on level of activity), and 1 mM 6-phosphogluconate. Reactions are started by the addition of 6-phosphogluconate and monitored for 5 mins at 30° C.

Piromyces: xylose isomerase from Piromyces strain E2 (SEQ ID NO: 35)
Active? (yes/no) [1]: Yes | Specific Activity (xylose; soluble whole cell extract, pH 7.5, 30° C.): 2.02 µmol/min/mg

B1: PAO1 EDD: phosphogluconate dehydratase (edd) from P. aeruginosa PAO1 (SEQ ID NO: 70) (protein, listed as Pseudomonas aeruginosa)
chain: MHPRVLEVTRRIQARSAATRQRYLEMVRAAASKGPHRGTLPCGNLAHGVAACGESDKQTLRLMNQANVAIVSAYNDMLSAHQPFERFPGLIKQALHEIGSVGQFAGGVPAMCDGVTQGEPGMELSLASRDVIAMSTAIALSHNMFDAALCLGVCDKIVPGLLIGSLRFGHLPTVFVPAGPMPTGISNKEKAAVRQLFAEGKATREELLASEMASYHAPGTCTFYGTANTNQLLVEVMGLHLPGASFVNPNTPLRDELTREAARQASRLTPENGNYVPMAEIVDEKAIVNSVVALLATGGSTNHTLHLLAIAQAAGIQLTWQDMSELSHVVPTLARIYPNGQADINHFQAAGGMSFLIRQLLDGGLLHEDVQTVAGPGLRRYTREPFLEDGRLVWREGPERSLDEAILRPLDKPFSAEGGLRLMEGNLGRGVMKVSAVAPEHQVVEAPVRIFHDQASLAAAFKAGELERDLVAVVRFQGPRANGMPELHKLTPFLGVLQDRGFKVALVTDGRMSGASGKVPAAIHVSPEAIAGGPLARLRDGDRVRVDGVNGELRVLVDDAEWQARSLEPAPQDGNLGCGRELFAFMRNAMSSAEEGACSFTESLNGWR
expression and solubility (western) [2]: expressed and soluble

B2: E. coli EDA: 2-keto-3-deoxygluconate-6-phosphate aldolase (eda) from E. coli expressed in yeast (protein, UniProt P0A955 1-213, looked up)
KHG/KDPG aldolase: MKNWKTSAESILTTGPVVPVIVVKKLEHAVPMAKALVAGGVRVLEVTLRTECAVDAIRAIAKEVPEAIVGAGTVLNPQQLAEVTEAGAQFAISPGLTEPLLKAATEGTIPLIPGISTVSELMLGMDYGLKEFKFFPAEANGGVKALQAIAGPFSQVRFCPTGGISPANYRDYLALKSVLCIGGSWLVPADALEAGDYDRITKLAREAVEGAKL
EDA activity relative to the EDA from P. aeruginosa (6-phosphogluconate; EDA expressed in S. cerevisiae, saturating E. coli EDD): approximately 16 fold | EDA activity ranking (6-phosphogluconate; repeat: 100 μg EDD and 25 μg EDA cell lysates (5 μg E. coli EDA), FIG. 24): most active | expression and solubility (western) [2]: expressed and soluble

B3: R. flavefaciens, FD-1 XI: xylose isomerase from R. flavefaciens FD-1 (SEQ ID NO: 110) expressed in S. cerevisiae (protein, listed as Ruminococcus flavefaciens)
chain: MEFFKNISKIPYEGKDSTNPLAFKYYNPDEVIDGKKMRDIMKFALSWWHTMGGDGTDMFGCGTADKTWGENDPAARAKAKVDAAFEIMQKLSIDYFCFHDRDLSPEYGSLKDTNAQLDIVTDYIKAKQAETGLKCLWGTAKCFDHPRFMHGAGTSPSADVFAFSAAQIKKALESTVKLGGTGYVFWGGREGYETLLNTNMGLELDNMARLMKMAVEYGRSIGFKGDFYIEPKPKEPTKHQYDFDTATVLGFLRKYGLDKDFKMNIEANHATLAQHTFQHELCVARTNGAFGSIDANQGDPLLGWDTDQFPTNIYDTTMCMYEVIKAGGFTNGGLNFDAKARRGSFTPEDIFYSYIAGMDAFALGYKAASKLIADGRIDSFISDRYASWSEGIGLDIISGKADMAALEKYALEKGEVTDSISSGRQELLESIVNNVIFNL
activity (slope) at saturating xylose (xylose; 100 μg total soluble crude extract, 500 mM xylose, FIG. 25): highest activity of the candidates tested | specific activity relative to native XI control (xylose; xylose concentrations between 40 and 500 nM): greater than 2 fold
